# Values joined by “and” are separate entries in the source; they are usually repeats but may differ in a detail not shown here. Identical values can stand only once. “Also recorded” adds a separate entry of the source. Like-named read-outs stand apart in the source and are kept apart here.
# B1: PMC-AM1: Fusion of antibody mimetic AM1 (VHCDR1-VHFR2-VLCDR3, Seq ID No.2) to C-terminus of Colicin Ia; Seq ID No.6 (protein)
# chain: SDPVRITNPGAESLGYDSDGHEIMAVDIYVNPPRVDVFHGTPPAWSSFGNKTIWGGNEWVDDSPTRSDIEKRDKEITAYKNTLSAQQKENENKRTEAGKRLSAAIAAREKDENTLKTLRAGNADAADITRQEFRLLQAELREYGFRTEIAGYDALRLHTESRMLFADADSLRISPREARSLIEQAEKRQKDAQNADKKAADMLAEYERRKGILDTRLSELEKNGGAALAVLDAQQARLLGQQTRNDRAISEARNKLSSVTESLNTARNALTRAEQQLTQQKNTPDGKTIVSPEKFPGRSSTNHSIVVSGDPRFAGTIKITTSAVIDNRANLNYLLSHSGLDYKRNILNDRNPVVTEDVEGDKKIYNAEVAEWDKLRQRLLDARNKITSAESAVNSARNNLSARTNEQKHANDALNALLKEKENIRNQLSGINQKIAEEKRKQDELKATKDAINFTTEFLKSVSEKYGAKAEQLAREMAGQAKGKKIRNVEEALKTYEKYRADINKKINAKDRAAIAAALESVKLSDISSNLNRFSRGLGYAGKFTSLADWITEFGKAVRTENWRPLFVKTETIIAGNAATALVALVFSILTGSALGIIGYGLLMAVTGALIDESLVEKANKFWGISYWLHWIKQRPGQGLWIGSQSTHVPRT
# modifications: The amino acid sequence of antibiotic PMC-AM1
# B2: Colicin Ia (protein, UniProt P06716 1-626, looked up)
# Colicin-Ia: MSDPVRITNPGAESLGYDSDGHEIMAVDIYVNPPRVDVFHGTPPAWSSFGNKTIWGGNEWVDDSPTRSDIEKRDKEITAYKNTLSAQQKENENKRTEAGKRLSAAIAAREKDENTLKTLRAGNADAADITRQEFRLLQAELREYGFRTEIAGYDALRLHTESRMLFADADSLRISPREARSLIEQAEKRQKDAQNADKKAADMLAEYERRKGILDTRLSELEKNGGAALAVLDAQQARLLGQQTRNDRAISEARNKLSSVTESLNTARNALTRAEQQLTQQKNTPDGKTIVSPEKFPGRSSTNHSIVVSGDPRFAGTIKITTSAVIDNRANLNYLLSHSGLDYKRNILNDRNPVVTEDVEGDKKIYNAEVAEWDKLRQRLLDARNKITSAESAVNSARNNLSARTNEQKHANDALNALLKEKENIRNQLSGINQKIAEEKRKQDELKATKDAINFTTEFLKSVSEKYGAKAEQLAREMAGQAKGKKIRNVEEALKTYEKYRADINKKINAKDRAAIAAALESVKLSDISSNLNRFSRGLGYAGKFTSLADWITEFGKAVRTENWRPLFVKTETIIAGNAATALVALVFSILTGSALGIIGYGLLMAVTGALIDESLVEKANKFWGI
# notes: Wild-type bacterial toxin secreted by E. coli forming ion channels
# What was measured:
# [1] = system: methicillin-resistant Staphylococcus aureus (ATCC BAA-42); assay: Minimum inhibitory concentration by agar dilution method; format: cell-based
# [2] = system: vancomycin-resistant Enterococcus faecalis (ATCC 700802); format: cell-based; conditions: MH medium
# [3] = system: Nesseria meningitidis (No. 29332); assay: Minimum inhibitory concentration by agar dilution method; format: cell-based; conditions: Embodiment 4, FIG. 6A, blood-chocolate medium with Columbia blood agar base
# [4] = system: multi-drug resistant Pseudomonas aeruginosa (isolated by West China Hospital, No. 13578); assay: as above; format: cell-based; conditions: for MIC in terms of molecular weight standard: Embodiment 3, converted from μg/ml; for MIC: MH medium
# [5] = system: Mycobacterium tuberculosis (the standard strains H37RV); assay: In vivo protection of mice infected by Mycobacterium tuberculosis; design: species or system BalB/c mice; conditions: for weight of mice during experiment: during 5 weeks treatment; for lung by microscope (pathological section): 5 weeks treatment, magnification 200, FIG. 11
# [6] = system: Nesseria meningitidis (No. 29332); assay: In vivo protection of mice infected by fatal dose of Nesseria meningitidis; conditions: 1.5 mg/kg intravenous 1 hour after intraperitoneal fatal dose; for survival rate in 8 days: 10 mice per group
# Description: The mice were given an intraperitoneal injection of glucose solution of ferrous by 20 mg/kg, and 1 hour later an intraperitoneal injection of 0.5 ml of bacteria culture containing 1 share of Nesseria meningitidis cultrue solution (its CFU was 2.36×10^9/ml) and 1.5 share of 5% dry yeast solution. One hour later after being given intraperitoneal injection of fatal dose of the bacteria culture, the mice in experimental group were given an intravenous injection of the drugs and the mice in control group were given an intravenous injection of normal saline, all drugs were injected by 1.5 mg/kg), observation every 2 hours for 8 days, the death of mice as the positive results.
# [7] = system: Nesseria meningitidis strain No. 29332; assay: Inhibiting effect on growth of Nesseria meningitidis in liquid culture (growth curve, optical density); format: cell-based; conditions: 5 and 10 μg/ml, rabbit blood-chocolate medium, 37° C., hourly A595 nm, FIG. 4
# Description: The bacteria was strain No. 29332 Nesseria meningitidis (No. 29332 of bacteria Preservation Center in China, i.e. Center of Medical Devices of National Institute for the Control of Pharmaceutical & biological Products, SDA), two microlitres (μl) of bacteria solution (10^5 CFU/ml) was added in 10 ml rabbit blood-chocolate medium containing 50 mg beef extract, 100 mg tryptone, 50 mg NaCl, 30 mg K2HPO4 and 0.5-0.8 ml off fiber rabbit blood. Five groups were prepared. The first group was added 0.3 M NaCl+50 mM boric acid buffer fluid (i.e. blank preservative fluid for the novel antibiotic, by the same volume with the novel antibiotic solution in the group 4 and 5) as control. Penicillin sodium was added in the second group by 5 μg/ml. The novel antibiotic PMC-AM1 was added in the third group by 5 μg/ml. The novel antibiotic PMC-AM2 was added in the forth group by 5 μg/ml. The novel antibiotic PMC-AM1 was added in the fifth group by 10 μg/ml.
# Reactant liquid of the above five groups were respectively put into 100 ml conical flask, and cultured at 37° C. by 200 rpm 100 μl culture solution was sampled per hour and added onto 96-pore ELISA plate for measuring bacteria grown cloudiness by spectrophotometer (A595 nm) color comparison. The bacteria-growth curve was drawn up to compare the bacteriostasis efficacy of novel antibiosis.
# [8] = Embodiment 4, FIG. 6C, BM medium
# [9] = Pseudomonas aeruginosa, Embodiment 3, agar dilution, 37° C. 18-24 hours, FIG. 5, read-out: MIC
# [10] = Embodiment 3, agar dilution, 37° C. 18-24 hours, FIG. 5
# [11] = Embodiment 5, FIG. 7B, MH medium
molecule,measurement,setting,value
"CC1(C)S[C@@H]2[C@H](NC(=O)[C@H](N)c3ccccc3)C(=O)N2[C@H]1C(=O)O [ampicillin, reference compound]",MIC,[1]; [8],21.55 nmol
same,MIC,"[2]; Embodiment 4, FIG. 6B",10.78 nmol
same,MIC,[3],1.35 nmol
CC(C)(O/N=C(\C(=O)N[C@@H]1C(=O)N2C(C(=O)[O-])=C(C[n+]3ccccc3)CS[C@H]12)c1csc(N)n1)C(=O)O [ceftazidime],MIC in terms of molecular weight standard,[4],29.3 nmol
same,MIC,"[4]; Embodiment 4, FIG. 6D",29.3 nmol
same,MIC,[4]; [9],16 µg/mL
same,MIC,[3],3.02 nmol
"NNC(=O)c1ccncc1 [isoniazid, reference compound]",weight of mice during experiment,[5],rise
C[C@H]1COc2c(N3CCN(C)CC3)c(F)cc3c(=O)c(C(=O)O)cn1c23 [levofloxacin],MIC in terms of molecular weight standard,[4],43.2 nmol
same,MIC,"[4]; Embodiment 4, FIG. 6D",43.2 nmol
same,MIC,[4]; [9],8 µg/mL
"Cc1onc(-c2ccccc2)c1C(=O)N[C@@H]1C(=O)N2[C@@H]1SC(C)(C)[C@@H]2C(=O)O [oxacillin, reference compound]",MIC,[1]; [8],14.1 nmol
"CN[C@H](CC(C)C)C(=O)N[C@H]1C(=O)N[C@@H](CC(N)=O)C(=O)N[C@H]2C(=O)N[C@H]3C(=O)N[C@H](C(=O)N[C@H](C(=O)O)c4cc(O)cc(O)c4-c4cc3ccc4O)[C@H](O)c3ccc(c(Cl)c3)Oc3cc2cc(c3O[C@@H]2O[C@H](CO)[C@@H](O)[C@H](O)[C@H]2O[C@H]2C[C@](C)(N)[C@H](O)[C@H](C)O2)Oc2ccc(cc2Cl)[C@H]1O [vancomycin, reference compound]",MIC,"[2]; Embodiment 4, FIG. 6B",21.54 nmol
gentamicin,survival rate in 8 days,[6],50%
same,MIC,[4]; [10],greater than 512 μg/ml
same,MIC in terms of molecular weight standard,[4],greater than 890 nMol
same,MIC,"[4]; Embodiment 4, FIG. 6D",> 889.4 nmol
penicillin,death of mice (survival outcome in words),[6],all died in two days
B1,MIC,[1]; [8],0.06 nmol
same,MIC,[1]; [11],0.06 nmol
same,"bacteria growth (bacteriostasis efficacy, growth curve)",[7],can only be restrained by PMC-AM1
same,survival rate in 8 days,[6],90%
same,lung by microscope (pathological section),[5],intact but had a little of cellular infiltration in parts
same,weight of mice during experiment,[5],rise
same,"observation of the mice's lung (TB nodules, necrosis)","[5]; mouse, in vivo, ip","intact, and had no nodules and necrosis of tuberculosis; also recorded: no TB nodules and necrosis"
same,MIC,"[2]; Embodiment 4, FIG. 6B",0.23 nmol
same,MIC,"[2]; Embodiment 5, FIG. 7A",0.23 nmol
same,MIC,[4]; [10],8 µg/mL
same,MIC in terms of molecular weight standard,[4],0.23 nmol
same,"antibacterial effect stronger than ceftazidime, levofloxacin and gentamicin","[4]; Embodiment 3, ratio of molar MICs",127 to 3800 times and 127-3800 times
same,MIC,"[4]; Embodiment 4, FIG. 6D",0.91 nmol
same,MIC,"[4]; Embodiment 5, FIG. 7C",0.23 nmol
same,MIC,[3],0.11 nmol
B2,MIC,[1]; [11],0.23 nmol
same,lung by microscope (pathological section),[5],the injury was little slighter than the control mouse's
same,mice died before sacrifice (from the forth week),"[5]; mouse, in vivo",1 mouse
same,MIC,"[2]; Embodiment 5, FIG. 7A",0.91 nmol
same,MIC,"[4]; Embodiment 5, FIG. 7C",0.91 nmol

# Reference: patent publication US9073989B2, “Antibiotic comprising an antibody mimetic, its preparation methods and uses thereof” (PROTEIN DESIGN LAB, LTD, priority 2011, dated 2015)
